Experimental findings from the RNAGym collection of RNA variant scans (doi:10.1073/pnas.2313332121) are described below.

Fewer inactive variants are shown than the library holds.

B1: TPR 5TU (parent)
chain: GGAUCUUCUCGAUCUAACAAAAAAGACAAAUCUGCCACAAAGCUUGAGAGCAUCUUCGGAUGCAGAGGCGGCAGCCUUCGGUGGCGCGAUAGCGCCAACGUUCUCAACUAUGACACGCAAAACGCGUGCUCCGUUGAAUGGAGUUUAUCAUG

Variants of B1 are the subject of this data set. As to the kind of experiment: polymerase ribozyme fitness, log enrichment relative to wild type (log ratio); higher = more active; in vitro selection for triplet polymerase activity. In a few lines:
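Mutant libraries of each subunit of a heterodimeric triplet polymerase ribozyme were built by PCR and transcribed. Each library went through one round of in vitro selection in triplicate: annealing with biotinylated primer, partner subunit and triplets, frozen incubation at −7 °C, gel excision of extended constructs, streptavidin-bead capture and RT-PCR. Input and output libraries were Illumina-sequenced; only genotypes with ≥10 input reads and ≥1 read per output were kept. Fitness is log2(genotype enrichment/wild-type enrichment), using inverse-variance-weighted replicate averages.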
As for U55A A60G C76G C87G C96U U139A G140C, the “polymerase ribozyme fitness (log ratio)” value was no more than -4.2.

Turning to C79G A91G A113U, the “polymerase ribozyme fitness (log ratio)” value was no more than -4.2. Next, G84A C85A G86A G92U U101C: no more than -4.2; C54A G80A C103G A110U A120U C132G: no more than -4.2; C8G A52C U55C G65A G83U C105U G143U: no more than -4.2.

Regarding G83C G84U A110C, the “polymerase ribozyme fitness (log ratio)” value was no more than -4.2.

For the variant A41U A52C, the “polymerase ribozyme fitness (log ratio)” value is -2.05.

For A40U G59U C75A C85U U109A, the “polymerase ribozyme fitness (log ratio)” value is no more than -4.2.

On to U4G U31G G50C G68A C75A G86U C95U U101A, for which the “polymerase ribozyme fitness (log ratio)” value is no more than -4.2. For the variant U56A G81C A120C G141A, the “polymerase ribozyme fitness (log ratio)” value amounted to 0.526.

With A3U A29C U61C, the “polymerase ribozyme fitness (log ratio)” value is no more than -4.2. Next, C69U C75U G92A U104G G133U C149U: no more than -4.2.

Take A19U U31A G58C C63U G70C C95U C131G G152U: the “polymerase ribozyme fitness (log ratio)” value is no more than -4.2. On to A40C C96U A122G G124C, for which the “polymerase ribozyme fitness (log ratio)” value is -0.809. Take C57U C95A A97C C123A: the “polymerase ribozyme fitness (log ratio)” value is -0.924. With C8U A41C U44G G81C G92U C93G, the “polymerase ribozyme fitness (log ratio)” value was no more than -4.2. On to A3U U31C C57U G86A, for which the “polymerase ribozyme fitness (log ratio)” value was -1.99. In the case of A20U A52C, the “polymerase ribozyme fitness (log ratio)” value is -2.87.

On to A21G A28G U61C, for which the “polymerase ribozyme fitness (log ratio)” value is no more than -4.2. Next, A37C G83U: -0.441; A26C G83A G126A A137G: no more than -4.2. The figure for U44A C87A G126U is no more than -4.2.

As to A39C U44G C75U C95U A119U G128U, the “polymerase ribozyme fitness (log ratio)” value was no more than -4.2. On to A17G C43A C54U C93G, for which the “polymerase ribozyme fitness (log ratio)” value is no more than -4.2.

On to G94A C105G C116A G141C, for which the “polymerase ribozyme fitness (log ratio)” value is no more than -4.2. Consider A39G C57A C99G, for which the “polymerase ribozyme fitness (log ratio)” value was -3.15.

Consider U77C G92C, for which the “polymerase ribozyme fitness (log ratio)” value was -3.48. For C85U A89U C105U, the “polymerase ribozyme fitness (log ratio)” value came to 0.517. A47U C54U C93U: the “polymerase ribozyme fitness (log ratio)” value was -2.08. The figure for U7G U15A G59C G124C G136A is -3.25; for U55G A73U A122G G126C it is -1.69.

For the variant C96G U109G G124C, the “polymerase ribozyme fitness (log ratio)” value was -2.62. Take U6C U33G U56C G81C C95U: the “polymerase ribozyme fitness (log ratio)” value was no more than -4.2.

For the variant A16G A21C G48C C54A G58U C93U A122G, the “polymerase ribozyme fitness (log ratio)” value is -3.83.

With U6C U56C A89C A121U, the “polymerase ribozyme fitness (log ratio)” value is -2.59.

In the case of U82A A91G C105U, the “polymerase ribozyme fitness (log ratio)” value is -2.53. As for G67C G94A U139A A142U, the “polymerase ribozyme fitness (log ratio)” value was no more than -4.2. The figure for A30C U33C G67A C93G A119U is -3.89. Next, A66G C69A G84U A138U: no more than -4.2; U101A G143C: -2.08. For C51U G88U U90C G94A C95U A147G, the “polymerase ribozyme fitness (log ratio)” value was no more than -4.2.

As to G94C C129G, the “polymerase ribozyme fitness (log ratio)” value is -3.39. As to U4G C35U G83C G124U U146C, the “polymerase ribozyme fitness (log ratio)” value was -2.43. Consider C5U A73U G83A, for which the “polymerase ribozyme fitness (log ratio)” value is -0.929. Regarding U9G A49U C85U, the “polymerase ribozyme fitness (log ratio)” value was no more than -4.2. The figure for A29U U44A A49C C57U G88U is no more than -4.2.

In the case of U4C A22U C32G C38G G65C G81A C118U C149U, the “polymerase ribozyme fitness (log ratio)” value is no more than -4.2.

Take U53A G59C C85U U135A: the “polymerase ribozyme fitness (log ratio)” value is -0.238. Take G70C U134G: the “polymerase ribozyme fitness (log ratio)” value was -4.17. On to U15A C85A, for which the “polymerase ribozyme fitness (log ratio)” value is -1.53. The figure for A23C U31C C99U C123U U134C is no more than -4.2; for U4A C8A A20U A29C A40G G70C U101A A120U it is no more than -4.2; for A12U G46A C75U C87A C99U G117A it is no more than -4.2. Take G80U G86U G94C C105A U134A: the “polymerase ribozyme fitness (log ratio)” value was no more than -4.2. Consider C14U A19U C87U C99A, for which the “polymerase ribozyme fitness (log ratio)” value is -3.91. C8G C18U C38U G50C C54U G65C C87U C99G: the “polymerase ribozyme fitness (log ratio)” value was no more than -4.2. As to A39C A41C A115G G124A, the “polymerase ribozyme fitness (log ratio)” value was -3.47. For the variant A24G C85A, the “polymerase ribozyme fitness (log ratio)” value was -2.96. In the case of C10G U13A A23U C32A A41G G71C C87U C105U A115U, the “polymerase ribozyme fitness (log ratio)” value is no more than -4.2. The figure for A41G A60G A97U is -0.347; for A22C A23G A49C A66G A113U it is no more than -4.2; for C14A A16U A49G G50A C57A A60G C95G U101C A110G it is no more than -4.2. For the variant C54A C79U C93A A113U U127G, the “polymerase ribozyme fitness (log ratio)” value was no more than -4.2. For the variant G84U A137U C149A, the “polymerase ribozyme fitness (log ratio)” value is no more than -4.2.

As to A19U C85G G92U C123U, the “polymerase ribozyme fitness (log ratio)” value was -2.54. Turning to G84A G124U, the “polymerase ribozyme fitness (log ratio)” value was -0.556.

As to G84A A147C, the “polymerase ribozyme fitness (log ratio)” value was -0.0528. For the variant C36U C69G A73G C87A G100U G112C G141C, the “polymerase ribozyme fitness (log ratio)” value is no more than -4.2. With A23C C76U C87A, the “polymerase ribozyme fitness (log ratio)” value is no more than -4.2. C27U A37U C99G: the “polymerase ribozyme fitness (log ratio)” value is -3.64.

Consider A3G A17C G143C, for which the “polymerase ribozyme fitness (log ratio)” value is -2.6. In the case of A47U G92U, the “polymerase ribozyme fitness (log ratio)” value was -0.338. Turning to G100U U144G, the “polymerase ribozyme fitness (log ratio)” value is -3.5. With A19G G42U G50U A52U C75U G88U G92C G143A, the “polymerase ribozyme fitness (log ratio)” value was no more than -4.2. The figure for C5G U6G U7G C14G A28C A30C G50C C51G A89G C93G G94U C105U C118A G133A is no more than -4.2; for U9A A91C C116G U148A it is -3.93. Take G11C A41C A66C C85U A122U G140U: the “polymerase ribozyme fitness (log ratio)” value is no more than -4.2. Regarding A19U A28C A40C A41C U44G C85A A113C, the “polymerase ribozyme fitness (log ratio)” value is no more than -4.2. C27A U33C G88C G141C: the “polymerase ribozyme fitness (log ratio)” value was no more than -4.2. For U6G A24U A119U G136U, the “polymerase ribozyme fitness (log ratio)” value was -3.74. Turning to A113U A120G, the “polymerase ribozyme fitness (log ratio)” value was -1.73.

Consider A17G A39C A107U, for which the “polymerase ribozyme fitness (log ratio)” value is no more than -4.2. Take A26C G81A C85G C87A G141U C149G: the “polymerase ribozyme fitness (log ratio)” value was no more than -4.2. Turning to C5A G50A C105U C116A, the “polymerase ribozyme fitness (log ratio)” value was -1.3.
